The record followed here is article PMC4828312 (Journal of neurochemistry, 2016).

Sequences and labels used below:
B1: Human recombinant tubulin β-3 (TUBB3) (natural protein)
chain: MREIVHIQAGQCGNQIGAKFWEVISDEHGIDPSGNYVGDSDLQLERISVYYNEASSHKYVPRAILVDLEPGTMDSVRSGAFGHLFRPDNFIFGQSGAGNNWAKGHYTEGAELVDSVLDVVRKECENCDCLQGFQLTHSLGGGTGSGMGTLLISKVREEYPDRIMNTFSVVPSPKVSDTVVEPYNATLSIHQLVENTDETYCIDNEALYDICFRTLKLATPTYGDLNHLVSATMSGVTTSLRFPGQLNADLRKLAVNMVPFPRLHFFMPGFAPLTARGSQQYRALTVPELTQQMFDAKNMMAACDPRHGRYLTVATVFRGRMSMKEVDEQMLAIQSKNSSYFVEWIPNNVKVAVCDIPPRGLKMSSTFIGNSTAIQELFKRISEQFTAMFRRKAFLHWYTGEGMDEMEFTEAESNMNDLVSEYQQYQDATAEEEGEMYEDDEEESEAQGPK

Experiment [1] addresses HIV-1 envelope glycoprotein gp120, strain IIIB (HIV-1 (strain IIIB), UniProt P04578 33-511). Briefly: SPR.
In experiment [2] the target is B1. Briefly: SPR.

As to B1, in experiment [1], the Kd was 7.5 nM.

Take NDMVEQMHEDIISLWDQSLK [Helix-A peptide of gp120]: the binding result in experiment [2] was “binds”.
